Laboratory results taken from patent US20100104554A1 (FUSION ANTIBODIES LIMITED A CORPORATION OF GREAT BRITIAN, published 2010).

B1: recombinant cathepsin S propeptide with C-terminal IgG2 Fc domain and N-terminal His-tag, expressed from pRSET A-Fc (Fc fusion)
chain: QLHKDPTLDHHWHLWKKTYGKQYKEKNEEAVRRLIWEKNLKFVMLHNLEHSMGMHSYDLGMNHLGDMTSEEVMSLMSSLRVPSQWQRNITYKSNPNR
notes: About 46 kDa, made in E. coli BL21 (DE3) pLysS; also called rCatSPP-Fc; CatSPP-Fc; not shown: N-terminal His-tag and leader from the pRSET A vector; IgG2 Fc domain engineered into the pRSET vector
B2: recombinant human cathepsin S propeptide (residues 17-113) with N-terminal hexahistidine tag, expressed from pQE30 (peptide)
chain: MRGSHHHHHHGSQLHKDPTLDHHWHLWKKTYGKQYKEKNEEAVRRLIWEKNLKFVMLHNLEHSMGMHSYDLGMNHLGDMTSEEVMSLTSSLRVPSQWQRNITYKSNPNRVDLQPSLIS
notes: also called rCatSPP; CatSPP

Columns and labels:
[1] = target: T1, human cathepsin S (Calbiochem) (human, UniProt P25774 115-331); assay: fluorometric enzyme inhibition assay with Z-VVR-AMC, rates taken from progress curves
T1 construct: also called CatS; Cat S
Method: Enzymatic assays were used to ascertain the ability of the rCatSPP to inhibit the peptidolytic activity of human cathepsins S, L, K, V and B (Calbiochem). Assays were performed in triplicate in 96-well microtitre plates in the presence of 100 mM sodium acetate, 1 mM ethylenediaminetetraacetate (EDTA), 0.1% Brij and 1 mM: dithiothreitol (DTT) at pH 5.5. CatS activity was monitored using the fluorigenic substrate carbobenzloxy-L-valinyl-L-vahnyl-L-arginylamido-4-methyl coumarin (Z-Val-Val-Arg-AMC, 25 μM), assays for cathepsins L, K and V were performed using carbobenzloxy-L-phenylalanyl-L-arginylamido-4-methyl coumarin (Z-Phe-Arg-AMC, 25 μM) and assays for CatB were performed using carbobenzloxy-L-arginylamido -L-arginylamido-4-methyl coumarin (Z-Arg-Arg-AMG, 25 μM) as substrates. Purified rCatSPP was added to assays as required at various concentrations (0-1000 nM). All experiments were performed using a Cytofluor® 4000 spectrofluorimeter with excitation at 395 nm and emission at 460 nm. […]
The inhibition of CatS peptidolytic activity using CatSPP Fc was measured. The rCatSPP-Fc was assessed by fluorometric assay using the fluorogenic substrate Z-VVR-AMC to determine if the species had the ability to retain its inhibition of CatS after the addition of the Fc-domain without any negative effects on the kinetics. […]

[2] = target: T1, human cathepsin S (Calbiochem); assay: cell-based or functional assay
[3] = target: T2, human cathepsin K (Calbiochem) (human, UniProt P43235 115-329); assay: fluorometric enzyme inhibition assay with Z-Phe-Arg-AMC, non-linear regression of progress curves
T2 construct: also called CatK; Cat K
T2 sequence (looked up): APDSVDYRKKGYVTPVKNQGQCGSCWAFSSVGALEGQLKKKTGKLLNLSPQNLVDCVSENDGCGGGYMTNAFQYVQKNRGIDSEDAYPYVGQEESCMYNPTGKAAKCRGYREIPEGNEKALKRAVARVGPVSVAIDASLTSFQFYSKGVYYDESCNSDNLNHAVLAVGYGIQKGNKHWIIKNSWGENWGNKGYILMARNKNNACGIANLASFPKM
Method: (§1) Enzymatic assays were used to ascertain the ability of the rCatSPP to inhibit the peptidolytic activity of human cathepsins S, L, K, V and B (Calbiochem). Assays were performed in triplicate in 96-well microtitre plates in the presence of 100 mM sodium acetate, 1 mM ethylenediaminetetraacetate (EDTA), 0.1% Brij and 1 mM: dithiothreitol (DTT) at pH 5.5. CatS activity was monitored using the fluorigenic substrate carbobenzloxy-L-valinyl-L-vahnyl-L-arginylamido-4-methyl coumarin (Z-Val-Val-Arg-AMC, 25 μM), assays for cathepsins L, K and V were performed using carbobenzloxy-L-phenylalanyl-L-arginylamido-4-methyl coumarin (Z-Phe-Arg-AMC, 25 μM) and assays for CatB were performed using carbobenzloxy-L-arginylamido -L-arginylamido-4-methyl coumarin (Z-Arg-Arg-AMG, 25 μM) as substrates. Purified rCatSPP was added to assays as required at various concentrations (0-1000 nM). All experiments were performed using a Cytofluor® 4000 spectrofluorimeter with excitation at 395 nm and emission at 460 nm. To confirm that the rCatSPP-Fc also had the ability to inhibit the activity of CatS, flurometric assays were performed using CatS, Z-Val-Val-Arg-AMC, 25 μM) in the presence of the rCatSPP-Fc (0 nM-200 nM).
(§2) Fluorescence was monitored for 30 mins and the RFU plotted over time to generate fluorometric progress curves. […] All fluorometric assays were performed in replicates of three.

[4] = target: T3, human cathepsin L (Calbiochem) (human, UniProt P07711 114-333, limits assumed); assay: as above
T3 construct: also called CatL; Cat L
Method: as §1, §2

[5] = target: T4, human cathepsin V (Calbiochem) (human, UniProt O60911 114-334); assay: as above
T4 construct: also called CatV; Cat V
Method: as §1, §2

T4 sequence (O60911 114-334 limits assumed): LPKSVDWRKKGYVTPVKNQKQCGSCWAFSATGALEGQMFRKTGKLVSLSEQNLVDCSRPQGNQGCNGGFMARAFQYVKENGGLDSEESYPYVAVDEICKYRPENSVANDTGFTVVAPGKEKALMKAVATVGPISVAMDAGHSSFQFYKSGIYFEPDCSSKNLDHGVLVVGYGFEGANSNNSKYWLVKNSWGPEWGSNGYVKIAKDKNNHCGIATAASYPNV
T3 sequence (P07711 114-333 limits assumed): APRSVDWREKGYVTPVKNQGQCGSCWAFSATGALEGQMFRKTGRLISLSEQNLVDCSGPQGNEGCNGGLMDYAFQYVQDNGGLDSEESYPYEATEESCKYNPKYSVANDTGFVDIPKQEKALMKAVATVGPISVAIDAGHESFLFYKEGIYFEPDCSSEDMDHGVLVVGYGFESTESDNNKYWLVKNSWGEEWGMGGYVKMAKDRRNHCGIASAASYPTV

| Binder | Ki [1] | EC50 of MDA-MB-231 tumour cell invasion (modified Boyden chamber, Matrigel) [2] | Ki [3] | Ki [4] | Ki [5] |
| --- | --- | --- | --- | --- | --- |
| B1 | 8.9 nM | 8.3 nM | – | – | – |
| B2 | – | 78 nM | 17.6 nM | 0.62 nM | 4.8 nM |
